Experimental findings from the nanobody polyreactivity screen of Harvey et al. (2022) are described below.

This data set is described as follows: yeast display, Sf9 membrane polyspecificity reagent, FACS + sequencing; frameworks hold sequencing errors. An outline of the steps:
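In a synthetic yeast display library (Saccharomyces cerevisiae BJ5465), nanobody expression was induced with galactose for 36–48 hours. FACS gates were set low and high (top ~1%) using anti-HA fluorescence for expression and streptavidin fluorescence for binding of the Sf9 membrane reagent. Each polyreactivity label is drawn from the gate of origin.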
Regarding “QVQLVESGGGLVQAGGSLRLSCAASGSIFEVYAMGWYRQAPGKERELVAAISGNGGSTYADSVKGRFTISRDNAKNTVYLQMNSLKPEDTAVYYCAAVPYGYGLASDSIFDYWGQGTQVTVSS”, the “polyreactivity (PSR sort gate)” value is “high polyreactivity”.

On to “QVQLVESGGGLVQAGGSLRLSCAASGSIFEYNAMGWYRQAPWKERELVAAITSGGSTNYADSVKGRFTISRDNAKNTVYLQMNSLKPEDTAVYYCAKKYRSVPKYLYRITKYNYWGQGTQVTVSS”, for which the “polyreactivity (PSR sort gate)” value is given as “low polyreactivity”.

Turning to “QVQLVESGGGLVQAGGSLRLSCAASGSIFEYYAMGWYRQAPGKERELVASITSSGTTYYADSVKGRFTISRDNAKNTVYLQMNSLKPEDTAVYYCAAYFAYLDSYVTYEYDYWGQGTQVTVSS”, the “polyreactivity (PSR sort gate)” value is on record as “low polyreactivity”.

With “QVQLVESGGGLVQAGGSLRLSCAASGSIFEYYAMGWYRQAPGKERELVATITGTDSTYYADSVKGRFTISRDNAKNTVYLQMNSLKPEDTADCAADRAASRPDYDYWGQGTQVTVSS”, the “polyreactivity (PSR sort gate)” value is recorded as “low polyreactivity”.

Take “QVQLVESGGGLVQAGGSLRLSCAASGSIFEYYAMGWYRTAPGKERELVAAISSGGPTYYADSVKGRFTISRDNAKNTVYLQMNSLKPEDSAVYYCNADLWYPDYDYWGQGTQVTVSS”: the “polyreactivity (PSR sort gate)” value is “low polyreactivity”.

For the sequence “QVQLVESGGGLVQAGGSLRLSCAASGSIFFEYAMGWSRQAPGKERELVASINRGGGSTYYSDSVKGRFTISRDNAKNTVYLQMNSLKPEDTAVSYCAAQWKYRQSYLDYYSGQGTQVTVSS”, the “polyreactivity (PSR sort gate)” value was “low polyreactivity”.

As to “QVQLVESGGGLVQAGGSLRLSCAASGSIFFEYAMGWYRQAPGKERELVASINRGGGSTYYADSVKGRFTISRDNAKNTVYLQMNSLKPEDTAVYYCAAQWKYRQSYLDYYWGQGTQVTVSS”, the “polyreactivity (PSR sort gate)” value is on record as “low polyreactivity”.

For “QVQLVESGGGLVQAGGSLRLSCAASGSIFFFNAMGWYRQAPGKEREMVAAISESGTSTYYADSVKGRFTISRDNAKNTVYLQMNSLKPEDTAVYYCNVVFRYAYGVYYTPEFYYWGQGTQVTVSS”, the “polyreactivity (PSR sort gate)” value is listed as “low polyreactivity”.

On to “QVQLVESGGGLVQAGGSLRLSCAASGSIFFGNAMGWYRQAPGKERELVAASTTSGGSTYYADSVKGRFTISRDNAKNTVYLQMNSLKPEDTAVYYCNAEYRTGVDGPRSRGGDYWGQGTQVTVSS”, for which the “polyreactivity (PSR sort gate)” value is “low polyreactivity”.

Turning to “QVQLVESGGGLVQAGGSLRLSCAASGSIFFGNDKGWYRQAPGKERELVAGISNGGRTNYADSVKGRFTISRDNAKNTVYLQMNSLKPEDTAVYYCAKHPVYIYWSRVLVGYYSWGQGTQVTVSS”, the “polyreactivity (PSR sort gate)” value was “low polyreactivity”.

“QVQLVESGGGLVQAGGSLRLSCAASGSIFFGNVMGWYRQAPGKERELVAVISWSGGTTYYADSVKGRFTISRDNAKNTVYLQMNSLKAEYTAVYYCNARYLRRGDYWGQGTQVTVSS”: the “polyreactivity (PSR sort gate)” value is recorded as “low polyreactivity”.

As to “QVQLVESGGGLVQAGGSLRLSCAASGSIFFHYAMGWYIQAPGKERELVAAITWDGGSTYYADSVKGRFTISRDNAKNTVYLQMNSLKPEDTAVYYCNADQDLSTDEDYWGQGTQVTVSS”, the “polyreactivity (PSR sort gate)” value is given as “low polyreactivity”.

Consider “QVQLVESGGGLVQAGGSLRLSCAASGSIFFIYDMGWYRQAPGKERELVADITSGGGSTFYADSVKGRFTISRDNAKNTVYLQMNSLKPEDTAVYYCATDDHDQPGGQLYITEVNYWGQGTQVTVSS”, for which the “polyreactivity (PSR sort gate)” value is recorded as “low polyreactivity”.

Turning to “QVQLVESGGGLVQAGGSLRLSCAASGSIFFLYAMGWYRQAPGKERELVAAISRSGVSTYYADSVKGRFTISRDNAKNTVYLQMNSLKPEDTAVYYCNRRVPVTRSRYYYWGQGTQVTVSS”, the “polyreactivity (PSR sort gate)” value is “high polyreactivity”.

Regarding “QVQLVESGGGLVQAGGSLRLSCAASGSIFFPYAMGWYRQAPGKERELVAAIDTSSGSTYSADSVKGRFTISRDNAKNTVYLQMNSLKPEDTAVYYCAREALQYPGLKYNYWGQGTQVTVSS”, the “polyreactivity (PSR sort gate)” value is on record as “low polyreactivity”.

As for “QVQLVESGGGLVQAGGSLRLSCAASGSIFFQYAMGWYRQAPGKERELVAAISTGGSTNYADSVKGRFTISRDNAKNTVYLQMNSLKPEETAVYYCAAYSRYKGYQYDYWGQGTQVTVSS”, the “polyreactivity (PSR sort gate)” value was “low polyreactivity”.

Take “QVQLVESGGGLVQAGGSLRLSCAASGSIFFRNAMGWYRQAPGKERELVAAITSGGSTYYADSVKGRFTISRDNAKNTVYLQMNSLKPEDTAVYYCNREFWRSSSYRYYYWGQGTQVTVSS”: the “polyreactivity (PSR sort gate)” value was “high polyreactivity”.

Consider “QVQLVESGGGLVQAGGSLRLSCAASGSIFFRNAMGWYRQAPGKERELVATIDWSGGYTDYADTVKGRFTISRDNAKNTVYLQMNSLKPEETAVYYCATGRYDRYYNFWYYYWGQGPQVTVSS”, for which the “polyreactivity (PSR sort gate)” value is recorded as “high polyreactivity”.

With “QVQLVESGGGLVQAGGSLRLSCAASGSIFFRYAMGWYRQAPGKERELVAAISDSGGTTYYADSVKGRFTISRDNAKNTVYLQMNSLKPEDTAVYYCAARFIYYSNRYYRYREFNYWGQGTQVTVSS”, the “polyreactivity (PSR sort gate)” value is listed as “high polyreactivity”.

As to “QVQLVESGGGLVQAGGSLRLSCAASGSIFFVYGMGWYRQAPGKERELVAAISGGITNYADSVKGRFTISRDNAKNTVNLQMNSLKPEDTAVYYCAAYTPSYGGRDYWGQATQVTVSS”, the “polyreactivity (PSR sort gate)” value is listed as “low polyreactivity”.

For “QVQLVESGGGLVQAGGSLRLSCAASGSIFFWNDMGWYRQAPGTERELVAAISWSGGSTSYADSVKGRFTISRDNAKNTVYLQMNSLKPEDTAVYYCAADYYYRTLYGYIGMDYWGQGTQVTVSS”, the “polyreactivity (PSR sort gate)” value is “low polyreactivity”.

With “QVQLVESGGGLVQAGGSLRLSCAASGSIFFYYAMGWYRQAPGKERELVAAIDFNGGNTYYADSVKGRFTISRDNAKNTVYLQMNSLKPEDTAVYYCAAEWEGTYTTVPDEFNYWGQGTQVTVSS”, the “polyreactivity (PSR sort gate)” value is recorded as “high polyreactivity”.

As to “QVQLVESGGGLVQAGGSLRLSCAASGSIFFYYAMGWYRQAPGKERELVAAINWSGVNTYYADSVKGRFTISRDNAKNTVYLQMNSLKPEDTAVYYFNAVVSLTSYGYLGYLFDYWGQGTLVTVSS”, the “polyreactivity (PSR sort gate)” value is given as “low polyreactivity”.

For “QVQLVESGGGLVQAGGSLRLSCAASGSIFFYYAMGWYRQAPGKERELVAAISGGGRTNYADSVKGRFTISRDNAKNTVYLQMNSLKPEDTAVYYCAADPVYWYSPMDYWGQGTQVTVSS”, the “polyreactivity (PSR sort gate)” value is reported as “low polyreactivity”.

As for “QVQLVESGGGLVQAGGSLRLSCAASGSIFFYYAMGWYRQAPGKERELVAAITSSDGDTYYADSVKGRFTISRDNAKNTVYLQMYSLKPEDTAVYYCAAESGPSPPITTSSNEYWGQGTLVTVSS”, the “polyreactivity (PSR sort gate)” value is reported as “low polyreactivity”.

Regarding “QVQLVESGGGLVQAGGSLRLSCAASGSIFFYYTMGWYRQAPGKEREFVAAISGSGGSTYYADSVKGRFTISRDNAKNTVYLQMNSLKPEDTAVYYCAAGLRLDLGAMYYWGQVTQVTVSS”, the “polyreactivity (PSR sort gate)” value is given as “low polyreactivity”.

As to “QVQLVESGGGLVQAGGSLRLSCAASGSIFGAYAMGWYRQAPGKERELVAAISGSGTSTYYADSVKGRFTISRDNAKNTVYLQMNSLKPEDTAVYYCATAKLTWRSQGLDYWGQGTQVTVSS”, the “polyreactivity (PSR sort gate)” value is listed as “low polyreactivity”.

For the sequence “QVQLVESGGGLVQAGGSLRLSCAASGSIFGAYAMGWYRQAPGKERELVAVIRWGGGSTYADSVKGRFTISRDNAKNTVYLQMNSLKPEDTAVYYCNRDKSWADLYSHAYDYWGQGTQVTVSS”, the “polyreactivity (PSR sort gate)” value was “low polyreactivity”.

Turning to “QVQLVESGGGLVQAGGSLRLSCAASGSIFGDNAMGWYIQAPGKERELVAAITSSGVRTYYADSVKGRFTISRDNAKNTVYLQMNSLKPEDTAVYYCNADRFRRIRWYAITRSDYWGQGTQVTVSS”, the “polyreactivity (PSR sort gate)” value is listed as “high polyreactivity”.

On to “QVQLVESGGGLVQAGGSLRLSCAASGSIFGDYVMGWYRQAPGKERELVAAITSATSTYYADSVKGRFTISRDNAKNTVYLQINSLKPEDTAVYYCNADATYPLWPNIWYDYDYWGQGTQVTVSS”, for which the “polyreactivity (PSR sort gate)” value was “low polyreactivity”.

On to “QVQLVESGGGLVQAGGSLRLSCAASGSIFGEYAMGWYRQAPGKERELVAAITFSTGSTYYADSVKGRFTISRDNAKNTVYLQMNSLKPEDTAVYYCAAESYTYYWYDYEYWGQGTQVTVSS”, for which the “polyreactivity (PSR sort gate)” value was “high polyreactivity”.

In the case of “QVQLVESGGGLVQAGGSLRLSCAASGSIFGFNAMGWYRQAPGIERELVAAINNGGSTNYADSVKGRFTISRENANNTVYLQMNSLKPEDTADYYCAARLNYIRRGYWGQGTQVTVSS”, the “polyreactivity (PSR sort gate)” value is “high polyreactivity”.

Regarding “QVQLVESGGGLVQAGGSLRLSCAASGSIFGFYAMGWYRQAPGKERELVASISSSGDSTYYADSVKGRFTISRDNAKNTVYLQMNSLNPEDTAVYYCAAVVYDIYGYEFDYWGQGTQVTVSS”, the “polyreactivity (PSR sort gate)” value is reported as “low polyreactivity”.

Regarding “QVQLVESGGGLVQAGGSLRLSCAASGSIFGGNAMGWYRQAPGKERELVAAITSTVSTNYADSVKGRFTISRDNAKNTVYLQMNSLKPEVTAVYYCATDSSNVEGDYWGQGTQVTVSS”, the “polyreactivity (PSR sort gate)” value is on record as “low polyreactivity”.

Turning to “QVQLVESGGGLVQAGGSLRLSCAASGSIFGGYAMGWYRQAPGKERELVAAISWSSSSTYYADSVKGRFTISRDNAKNTVYLQMNSLKPEDTAVYYCNAKPFYDYTEYDYWGQGTQVTVSS”, the “polyreactivity (PSR sort gate)” value is given as “low polyreactivity”.

In the case of “QVQLVESGGGLVQAGGSLRLSCAASGSIFGGYAMGWYRQAPGKERELVAAITSSGGRTYYADSVKGRFTISRDNAKNTVYLQMNSLKPEDTAVYYCAASPNYYYYYPMYYWGQGTQVTVSS”, the “polyreactivity (PSR sort gate)” value is given as “high polyreactivity”.

With “QVQLVESGGGLVQAGGSLRLSCAASGSIFGGYAMGWYRQAPGKERELVATISYSGDSTYYADSVKGRFTISRDHAKNTVYLQMNSLKPEDTAVDYCATESNGSPYKGDYWGQGTQVTVSS”, the “polyreactivity (PSR sort gate)” value was “low polyreactivity”.

On to “QVQLVESGGGLVQAGGSLRLSCAASGSIFGGYTMGWYRQAPGKERELVAAISRRGGNTYYADSVKGRFTISRDNAKNTVYLQMNSLKPEDTAVYYCNARPTTYNYDYWGQGTQVTVSS”, for which the “polyreactivity (PSR sort gate)” value is “high polyreactivity”.

Turning to “QVQLVESGGGLVQAGGSLRLSCAASGSIFGGYTMGWYRQAPGKERELVAAISRRGGNTYYADSVKGRFTISRDYAKNTVYLQMNSLKPDDTAVYFCAKRYASTSGYWGQGTQVTVSS”, the “polyreactivity (PSR sort gate)” value is “high polyreactivity”.

With “QVQLVESGGGLVQAGGSLRLSCAASGSIFGHNTMGWYRQAPVKERELVAAISSGSRTNSADTVKGRFTISRDNAKNTVYLQMKSLKPEDTAVDYCATKVYSSRYRGYGYWGQGPQVTVSS”, the “polyreactivity (PSR sort gate)” value is “high polyreactivity”.
